In article PMC11507936:

Columns and labels:
[1] = target: SARS-CoV-2 Nucleocapsid protein (N), unmodified (SARS-CoV-2) (UniProt P0DTC9); assay: […]
[2] = target: phosphorylated SARS-CoV-2 Nucleocapsid protein (pN) (SARS-CoV-2) (UniProt P0DTC9); assay: […]

Substance	partition coefficient [1]	partition coefficient [2]
6xHis-GFP-Nsp3^1–111 (ubiquitin-like domain 1 of SARS-CoV-2 Nsp3) (domain or fragment)	12.6	2.2
6xHis-GFP-M^104–222 (C-terminal endodomain of the SARS-CoV-2 Membrane protein) (from UniProt P0DTC5 104-222) (domain or fragment)	9.8	0.3
